Laboratory results as given in publication PMC3196555.

Key:
TrkA = TrkA (UniProt P35739); test: co-IP; 293T cells transfected with pCMV5-TrkA and a myc construct, 100 ng/ml NGF for 15 min; RIPA lysate precipitated with anti-TrkA antibody, blotted with anti-TrkA and anti-myc
myc-SH2B3 (human) = myc-SH2B3 (human) (UniProt Q9UQQ2); test: co-IP; 293T cells transfected with pCMV5-TrkA and a myc construct, 100 ng/ml NGF for 15 min; RIPA lysate precipitated with anti-myc antibody, blotted with anti-myc and anti-TrkA

TrkA, sequence (P35739 33-799): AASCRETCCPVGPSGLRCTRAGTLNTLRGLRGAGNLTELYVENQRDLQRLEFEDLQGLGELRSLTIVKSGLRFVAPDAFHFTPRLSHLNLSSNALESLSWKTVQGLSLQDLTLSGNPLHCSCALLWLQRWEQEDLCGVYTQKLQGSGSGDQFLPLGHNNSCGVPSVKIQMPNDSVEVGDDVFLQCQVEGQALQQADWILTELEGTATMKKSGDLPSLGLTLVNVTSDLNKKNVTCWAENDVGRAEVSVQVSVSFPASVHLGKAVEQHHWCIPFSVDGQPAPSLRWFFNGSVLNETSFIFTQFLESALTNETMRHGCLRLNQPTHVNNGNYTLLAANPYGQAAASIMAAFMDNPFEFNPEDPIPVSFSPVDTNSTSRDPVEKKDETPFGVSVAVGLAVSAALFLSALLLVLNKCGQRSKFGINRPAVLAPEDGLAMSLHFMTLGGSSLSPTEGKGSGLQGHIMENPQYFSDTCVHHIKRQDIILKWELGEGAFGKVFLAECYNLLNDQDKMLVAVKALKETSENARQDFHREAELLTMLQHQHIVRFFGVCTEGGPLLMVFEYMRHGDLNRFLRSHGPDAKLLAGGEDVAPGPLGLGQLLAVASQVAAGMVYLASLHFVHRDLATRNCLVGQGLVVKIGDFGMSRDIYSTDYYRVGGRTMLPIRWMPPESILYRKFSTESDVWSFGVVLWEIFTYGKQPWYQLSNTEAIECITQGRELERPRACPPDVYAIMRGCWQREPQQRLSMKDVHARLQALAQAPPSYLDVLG

| Substance | relative amount co-precipitated with TrkA, as percent of SH2B1β (TrkA) [%] | relative amount of TrkA co-precipitated, as percent of that with SH2B1β (myc-SH2B3 (human)) [%] |
| --- | --- | --- |
| myc-SH2B3 (from UniProt Q9UQQ2 1-575) (natural protein) | 88 | – |
| TrkA (from UniProt P35739 33-799) (receptor) | – | 10 |
